Assay [1] has as its target T1, TLR4:Fc fusion protein (entire extracellular domain of hTLR4, amino acids 1-632, fused to the Fc portion of … (human; mouse, UniProt P01863 98-330 = IgG part).
T1 construct: domain: C-terminal 233 amino acid Fc portion; Secreted by retrovirally transduced HEK293 cells; also called T4:Fc; TLR4:Fc chimera
The assay is described as follows: indirect ELISA-like assay: TLR4:Fc captured on protein A coated plate, MD-2 titrated 0.1 to 50 nM, Ni-HRP detection, absorbance at 450 nm; without LPS (dotted line). The method, then: FIG. 4A is a line graph of MD-2^6xHis binding to TLR-4:Fc. MD-2^6xHis was added in titrated amounts (0.1 to 50 nM). To control for non-specific binding to protein A, 50 nM of MD-2 was plated in the absence of TLR4:Fc (“50”). […] The apparent […] of this interaction is of ˜12 nM.
To determine the Kd for the interaction between TLR4 and MD-2, an indirect ELISA-like binding assay was developed. Fifty μl of purified TLR4:Fc at 20 μg/ml (FIG. 4A) or at the concentration indicated in FIG. 4B was plated on protein A coated, high-protein binding 96 well plates. […] MD-2 bound to TLR4:Fc was detected using Ni-HRP (1:2,000 in PBS-Tween, Sigma), and developed by incubation with its chromogenic substrate per the manufacturer's instructions (DAKO, Carpinteria, Calif.). Each condition was measured in triplicate; the absorbance of each sample was measured at 450 nm; the results are presented as the average reading±SD.
In FIG. 4A, saturating amounts of TLR4:Fc were adsorbed to protein A coated 96 well plates and purified soluble MD-2 was added in titrated amounts. The 6×His tag present at the C terminus of MD-2 was detected using a Ni based HRP labeled reagent, and the presence of MD-2 bound to TLR4 was detected using a chromogenic substrate. […]

The target of assay [2] is T1, TLR4:Fc fusion protein (entire …). The assay is described as follows: depletion of human serum with TLR4:Fc loaded protein A beads, read out on NF-κB reporter cells (FIG. 6A). The method, then:
Human serum was collected from healthy volunteers using standard serum Vacutainers™ blood collection tubes (Becton Dickinson) and clotted for 30 minutes at room temperature. The blood clot was removed by centrifugation and serum stored at −20° C. in 1 ml aliquots until use. MD-2 was removed from serum using immunoaffinity techniques using chimeric antibody-like proteins bound to protein A Sepharose™ beads (PAS). Human antibodies can potentially compete with the TLR chimeras for binding sites on protein A beads. Therefore, they were removed from serum by two preclearing steps, of two hours each, with 1/10 the volume of packed PAS beads.
HEK293 cells that had been transduced with retrovirus encoding the TLR:Fc fusion proteins were grown in protein free medium and served as the source of conditioned medium. TLR4:Fc and TLR2:Fc were captured from 50-100 ml of medium using 40 μl of packed PAS/ml for one hour at 4° C. Coated beads were then added to sera that had been precleared with PAS alone for 1 hour at 4° C. Human serum was diluted in DMEM to a final concentration of 20% v/v before use on reporter cells. Before each conjugation/treatment step, the beads were washed with 20% ethanol in PBS followed by equilibration in DMEM. Reconstitution with MD-2 was performed by adding the indicated amounts of recombinant purified MD-2 to the TLR4:Fc depleted stimulating media. […]

T1 sequence (P01863 other isoform, or with tags, fused parts or gaps limits assumed): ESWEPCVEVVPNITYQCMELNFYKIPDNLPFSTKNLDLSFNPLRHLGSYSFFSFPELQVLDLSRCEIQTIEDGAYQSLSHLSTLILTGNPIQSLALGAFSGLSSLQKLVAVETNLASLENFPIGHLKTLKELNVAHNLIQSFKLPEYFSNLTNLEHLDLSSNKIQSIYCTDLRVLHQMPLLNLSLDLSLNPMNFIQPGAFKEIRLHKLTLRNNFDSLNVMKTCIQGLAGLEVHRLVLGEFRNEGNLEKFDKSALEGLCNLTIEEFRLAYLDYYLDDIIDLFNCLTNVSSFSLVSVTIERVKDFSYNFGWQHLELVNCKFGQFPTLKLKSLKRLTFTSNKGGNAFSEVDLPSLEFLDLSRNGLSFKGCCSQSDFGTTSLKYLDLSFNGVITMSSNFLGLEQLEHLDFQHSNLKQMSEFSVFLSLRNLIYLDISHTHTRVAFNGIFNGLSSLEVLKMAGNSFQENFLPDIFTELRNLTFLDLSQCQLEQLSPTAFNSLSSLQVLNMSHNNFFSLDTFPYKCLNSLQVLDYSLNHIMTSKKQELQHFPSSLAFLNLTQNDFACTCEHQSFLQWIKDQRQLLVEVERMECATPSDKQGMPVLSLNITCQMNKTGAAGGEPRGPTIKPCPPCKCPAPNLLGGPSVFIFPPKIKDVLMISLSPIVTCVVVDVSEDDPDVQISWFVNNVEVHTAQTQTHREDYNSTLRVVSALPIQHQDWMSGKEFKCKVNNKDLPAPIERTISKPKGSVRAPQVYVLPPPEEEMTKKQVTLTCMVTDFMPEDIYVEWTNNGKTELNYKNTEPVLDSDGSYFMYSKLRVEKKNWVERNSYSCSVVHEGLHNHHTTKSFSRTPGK

B1: C-terminally 6×His tagged human MD-2, baculovirus-derived (Sf9 insect cells), purified (ligand)
chain: QKQYWVCNSSDASISYTYCDKMQYPISINVNPCIELKGSKGLLHIFYIPRRDLKQLYFNLYITVNTMNLPKRKEVICRGSDDDYSFCRALKGETVNTTISFSFKGIKFSKGKYKCVVEAISGSPEEMLFCLEFVILHQPNSNHHHHHH
notes: Purified from supernatants (secreted); also called MD-2^6xHis; MD-2^6×His
The molecule B1 displayed a Kd in assay [1] of about 12 nM.

B2: endogenous soluble MD-2 in serum of healthy human donors (ligand)
chain: QKQYWVCNSSDASISYTYCDKMQYPISINVNPCIELKGSKGLLHIFYIPRRDLKQLYFNLYITVNTMNLPKRKEVICRGSDDDYSFCRALKGETVNTTISFSFKGIKFSKGKYKCVVEAISGSPEEMLFCLEFVILHQPNSN
notes: Natural protein in serum; also called sMD-2; serum MD-2
Turning to B2, the binding result in assay [2] is “binds”.

The values are drawn from patent publication US20060241040A1 (published 2006).
